Source: paper PMC11703348, “Role of Aspartate 42 and Histidine 79 in the aiPLA2 activity and oligomeric status of Prdx6 at low pH” (Research Square, 2024)
Positions count from the first letter of the chain named. Names may count otherwise.

B1: Peroxiredoxin 6 (Prdx6), recombinant rat wild type (enzyme, UniProt O35244 1-224, looked up)
chain: MPGGLLLGDEAPNFEANTTIGHIRFHDFLGDSWGILFSHPRDFTPVCTTELGRAAKLAPEFAKRNVKLIALSIDSVEDHFAWSKDINAYNGAAPTEKLPFPIIDDKDRDLAILLGMLDPAEKDEKGMPVTARVVFIFGPDKKLKLSILYPATTGRNFDEILRVVDSLQLTASNPVATPVDWKKGESVMVLPTLPEEEAKQLFPKGVFTKELPSGKKYLRYTPQP
notes: Peroxiredoxin 6 (Prdx6), rat, wild type; cloned between the NdeI and SapI sites of pTYB1; no extra residues remain after intein self-cleavage; also called Wt Prdx6; WT Prdx6
B2: D42A Prdx6 (Asp42 to Ala mutant of rat Prdx6) (enzyme, UniProt O35244 1-224, looked up)
chain: B1 chain with D42A
notes: Peroxiredoxin 6 (Prdx6), rat, with Asp42 replaced by Ala (QuikChange mutagenesis); the methods print it once as Asp43Ala; Same construct as m1 with the point mutation; also called Asp42A; Asp42-Ala
B3: H79A Prdx6 (His79 to Ala mutant of rat Prdx6) (enzyme, UniProt O35244 1-224, looked up)
chain: B1 chain with H79A
notes: Peroxiredoxin 6 (Prdx6), rat, with His79 replaced by Ala (QuikChange mutagenesis); Same construct as m1 with the point mutation; also called His79A; His79-Ala

What was measured:
[1] = molecular target: the molecule itself; assay: dynamic light scattering; pH 7.4; protein 2 mg/ml, 25 °C; hydrodynamic diameter and volume fraction (Zetasizer)
[2] = molecular target: the molecule itself; assay: native gel or EMSA; native-PAGE at neutral pH: 50 mM Tris-HCl, 100 mM NaCl pH 7.4, running buffer 35 mM Hepes, 43 mM imidazole pH 7.4; continuous 7.5% gel, non-reducing, non-denaturing; markers BSA and ferritin
[3] = molecular target: the molecule itself; assay: native gel or EMSA; native-PAGE at low pH: 40 mM Na-acetate pH 4, running buffer 30 mM beta alanine, 20 mM lactic acid pH 3.8, reverse polarity; continuous 7.5% gel, non-reducing, non-denaturing; markers BSA and ferritin

Protein | stoichiometry N [1] | stoichiometry N [2] | stoichiometry N [3]
B1 | 2 | – | –
B2 | – | 2 | ~2
B3 | – | 2 | ~2
